Test results published in patent US20140303084A1 (Biogen, published 2014).
Primed or numbered codes have the meaning given here. Side chains are listed from the residue outwards. Ends that are not written are not given here. * marks the point of attachment. Biotin = O=C1N[C@H]2[C@H](CS[C@H]2CCCCC(=O)*)N1; PEG2′ = PEG2 spacer unit

T1: human Factor VIIa (human, UniProt P08709 61-466)
T1 construct: Bought protein; also called hFVIIa; FVIIa
T1 sequence (looked up): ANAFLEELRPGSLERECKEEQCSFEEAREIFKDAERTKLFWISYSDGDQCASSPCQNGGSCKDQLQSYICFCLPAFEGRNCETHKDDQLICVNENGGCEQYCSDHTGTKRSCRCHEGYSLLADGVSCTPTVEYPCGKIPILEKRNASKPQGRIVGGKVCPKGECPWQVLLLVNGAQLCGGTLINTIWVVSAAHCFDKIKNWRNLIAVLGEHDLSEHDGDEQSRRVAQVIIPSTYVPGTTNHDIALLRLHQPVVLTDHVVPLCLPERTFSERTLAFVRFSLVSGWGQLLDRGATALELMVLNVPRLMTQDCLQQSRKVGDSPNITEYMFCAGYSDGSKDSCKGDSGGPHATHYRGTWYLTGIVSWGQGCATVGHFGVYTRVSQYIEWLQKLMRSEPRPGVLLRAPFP


How the values were obtained:
[1] = target: T2, human Factor IXa (human, UniProt P00740 47-191; P00740 227-461); test: cell-based or functional assay
[2] = target: T1, human Factor VIIa; test: BLI (ForteBio Octet 384), peptide on streptavidin probes, soluble hFVIIa
Method: (§1) Briefly, a layer of molecules attached to the tip of an optical fiber creates an interference pattern upon incident white light. The combination of the optical fiber and biocompatible surface creates the physical conditions needed for BLI, allowing the detection of changes in mass accumulation on the tip of the probe. This is measured by alterations in the spectral shift (nm). These changes are recorded as a binding profile, a continuous, real-time monitoring of the association and dissociation of interacting molecules.
(§2) Control SA probes were loaded with 4M guanidinium chloride in the absence of biotinylated peptide for reference subtraction. After loading, probes were incubated in HBS-P for 300 sec to establish a new baseline. […] This is described as the dissociation phase. The equilibrium KD was derived from the non-linear regression analysis of the subtracted data (Reaction probe minus Reference probe) using a 1:1 binding model with ForteBio software (Version 7.0).

[3] = target: T2, human Factor IXa; test: BLI (ForteBio Octet 384), biotinylated peptide on streptavidin probes, soluble hFIXa 0-2000 nM, steady state, 1:1 model
Method: as §1, §2

EC50 [µM], FXa generation assay with hFIXa [1] [µM] | Kd [2] [nM] | Kd [3] [nM] | Binder
< 0.5 | 250 | – | RRAPGKLQCLASYCWLFWTGIA-NH2 (cysteine pairing not given here) [compound 25]
< 0.5 | – | 120 | RRAPGKLTCLASYCWLFK([PEG2′-Biotin])TGIA-NH2 (not fully specified (bridges); printed as RRAPGKLTCLASYCWLFK(PEG2-Biotin)TGIA; cysteine pairing not given here, also called compound 4 biotinylated at K18) [compound 19]
